Source: patent US11312984B2, “High-purity steviol glycosides” (PURECIRCLE SDN BHD, priority 2013, dated 2022)

Columns and labels:
[1] = Sweetness of reb M compared to a 10% sucrose solution
Source text: The high purity reb M obtained in this invention, having a molecular weight of 1291.29, a molecular formula of C56H90O33, CAS registry number 1220616-44-3, and the structure presented in FIG. 1, is in the form of a white and odorless powder. The compound is about 200 times sweeter than sugar when compared to a 10% sucrose solution.

[2] = Catalytic test of in-vitro expressed UDP-glucosyltransferases, Rebaudioside A to Rebaudioside D (HPLC); type: biochemical; settings: 0.5 mM Rebaudioside A, 30° C.; for Steviol glycoside conversion in reaction mixture, Reb A (Retention Time ~9.1 min): remaining substrate
Description: The prepared expression medium mix was added to the plasmid solution and the solution was allowed to incubate at 30° C. for 3 hours while mixing the mixture every 45 minutes. 5 μL of the mixture was frozen whereas the remainder was used for the catalytic test for the conversion of Rebaudioside A to Rebaudioside D.
(§1) 430 μL of a reaction mixture containing 0.5 mM Rebaudioside A, 3 mM MgCl2, 50 mM phosphate buffer (pH7.2) and 2.5 mM UDP-glucose was added to a 1.5 mL sterile microtube. 52 μL of the enzyme expression medium was added and the resulting mixture was allowed to react at 30° C. for 24 hours. 125 μL samples were taken after 2 hours, 16 hours and 24 hours and added to a 115 μL of 60% methanol and 10 μL of 2 N H2SO4. The quenched sample was centrifuged at 18,000 g for 2 minutes at RT. 200 μL was transferred to an HPLC vial and analyzed.
The HPLC assay was performed as follows:
as §1, with “to” for “to an”
The HPLC assay was performed as described in EXAMPLE 20.

[3] = Rubusoside conversion products with UGTSL, UGTSL2 and UGTLB by LC-MS; type: biochemical; settings: reaction time UGTSL2 2 hrs, UGTLB 5 hrs, UGTSL 45 hrs
Description: (§2) Conversion of stevioside with UGTSL and UGTSL2 was conducted in similar manner to Example 28, and the conversion of rubusoside with UGTSL and UGTSL2 was conducted similarly to Example 29. Conversions of rubusoside and stevioside with UGTLB was conducted similarly to Example 32.
(§3) The reaction mixtures were analyzed by LCMS to determine all reaction products.

[4] = Stevioside conversion products with UGTSL, UGTSL2 and UGTLB by LC-MS; type: biochemical; settings: reaction time UGTSL2 2 hrs, UGTLB 2 hrs, UGTSL 22 hrs
Description: as §2, §3

[5] = Activity of UGT76G1_Sc for the conversion of Rebaudioside D to Rebaudioside M; type: biochemical; settings: based on initial concentration of Rebaudioside D; 21 h.
Description: UGT76G1_Sc was prepared according to EXAMPLE 34. Activity tests were performed at 2 mL scale with 200 μL of lysate for the transformation of Rebaudioside D using 0.5 mM of substrate, 2.5 mM of UDP-Glucose and 3 mM MgCl2 in 50 mM Sodium Phosphate buffer at pH 7.2. Samples were taken and analyzed by HPLC according to the method of EXAMPLE 20.

C=C1C[C@@]23CC[C@H]4[C@@](C)(CCC[C@@]4(C)C(=O)O[C@@H]4O[C@H](CO)[C@@H](O)[C@H](O[C@@H]5O[C@H](CO)[C@@H](O)[C@H](O)[C@H]5O)[C@H]4O[C@@H]4O[C@H](CO)[C@@H](O)[C@H](O)[C@H]4O)[C@@H]2CC[C@]1(O[C@@H]1O[C@H](CO)[C@@H](O)[C@H](O[C@@H]2O[C@H](CO)[C@@H](O)[C@H](O)[C@H]2O)[C@H]1O[C@@H]1O[C@H](CO)[C@@H](O)[C@H](O)[C@H]1O)C3 [reb M, rebaudioside M]
times sweeter than sugar [1]: about 200 times

B1: S115N05 A7: UGTSL, Solanum lycopersicum cyanidin-3-O-glucoside 2-O-glucuronosyltransferase-like, SEQ ID NO: 5 (protein, listed as Solanum lycopersicum)
chain: MSPKLHKELFFHSLYKKTRSNHTMATLKVLMFPFLAYGHISPYLNVAKKLADRGFLIYFCSTPINLKSTIEKIPEKYADSIHLIELHLPELPQLPPHYHTTNGLPPNLNQVLQKALKMSKPNFSKILQNLKPDLVIYDILQRWAKHVANEQNIPAVKLLTSGAAVFSYFFNVLKKPGVEFPFPGIYLRKIEQVRLSEMMSKSDKEKELEDDDDDDDLLVDGNMQIMLMSTSRTIEAKYIDFCTALTNWKVVPVGPPVQDLITNDVDDMELIDWLGTKDENSTVFVSFGSEYFLSKEDMEEVAFALELSNVNFIWVARFPKGEERNLEDALPKGFLERIGERGRVLDKFAPQPRILNHPSTGGFISHCGWNSAMESIDFGVPIIAMPMHLDQPMNARLIVELGVAVEIVRDDDGKIHRGEIAETLKGVITGKTGEKLRAKVRDISKNLKTIRDEEMDAAAEELIQLCRNGN
Steviol glycoside conversion in reaction mixture, Reb UNK (Retention Time ~6.7 min) [2]: 23.3 % area | Steviol glycoside conversion in reaction mixture, Reb A (Retention Time ~9.1 min) [2]: 46.7 % area | Rubusoside conversion products, LC-MS peak area ratio: Reb D [3]: 3.45% | Rubusoside conversion products, LC-MS peak area ratio: Reb E [3]: 35.88% | Rubusoside conversion products, LC-MS peak area ratio: Rub [3]: 7.82% | Rubusoside conversion products, LC-MS peak area ratio: Stev [3]: 2.37% | Stevioside conversion products, LC-MS peak area ratio: Reb D [4]: 0.54% | Stevioside conversion products, LC-MS peak area ratio: Reb E [4]: 49.68% | Stevioside conversion products, LC-MS peak area ratio: Stev [4]: 25.24%

B2: S115N06 C2: UDP-glucoronosyl/UDP-glucosyl transferase family protein, Arabidopsis lyrata subsp. lyrata, SEQ ID NO: 7 (protein, listed as Arabidopsis lyrata)
chain: MDDKKEEVMHIAMFPWLAMGHLLPFLRLSKLLAQKGHKISFISTPRNILRLPKLPSNLSSSITFVSFPLPSISGLPPSSESSMDVPYNKQQSLKAAFDLLQPPLTEFLRLSSPDWIIYDYASHWLPSIAKELGISKAFFSLFNAATLCFMGPSSSLIEESRSTPEDFTVVPPWVPFKSTIVFRYHEVSRYVEKTDEDVTGVSDSVRFGYTIDGSDAVFVRSCPEFEPEWFSLLQDLYRKPVFPIGFLPPVIEDDDDDTTWVRIKEWLDKQRVNSVVYVSLGTEASLRREELTELALGLEKSETPFFWVLRNEPQIPDGFEERVKGRGMVHVGWVPQVKILSHESVGGFLTHCGWNSVVEGIGFGKVPIFLPVLNEQGLNTRLLQGKGLGVEVLRDERDGSFGSDSVADSVRLVMIDDAGEEIREKVKLMKGLFGNMDENIRYVDELVGFMRNDESSQLKEEEEEDDCSDDQSSEVSSETDEKELNLDLKEEKRRISVYKSLSSEFDDYVANEKMG
Steviol glycoside conversion in reaction mixture, Reb D (Retention Time ~5.8 min) [2]: 0.28 % area | Steviol glycoside conversion in reaction mixture, Reb UNK (Retention Time ~6.7 min) [2]: 3.9 % area | Steviol glycoside conversion in reaction mixture, Reb A (Retention Time ~9.1 min) [2]: 95.8 % area

B3: UGTSL2: UGTSL2, GI_460410132, Solanum lycopersicum UDP-glucosyltransferase, SEQ ID NO: 9 (protein, listed as Solanum lycopersicum)
chain: MATNLRVLMFPWLAYGHISPFLNIAKQLADRGFLIYLCSTRINLESIIKKIPEKYADSIHLIELQLPELPELPPHYHTTNGLPPHLNPTLHKALKMSKPNFSRILQNLKPDLLIYDVLQPWAEHVANEQNIPAGKLLTSCAAVFSYFFSFRKNPGVEFPFPAIHLPEVEKVKIREILAKEPEEGGRLDEGNKQMMLMCTSRTIEAKYIDYCTELCNWKVVPVGPPFQDLITNDADNKELIDWLGTKHENSTVFVSFGSEYFLSKEDMEEVAFALELSNVNFIWVARFPKGEERNLEDALPKGFLERIGERGRVLDKFAPQPRILNHPSTGGFISHCGWNSAMESIDFGVPIIAMPIHNDQPINAKLMVELGVAVEIVRDDDGKIHRGEIAETLKSVVTGETGEILRAKVREISKNLKSIRDEEMDAVAEELIQLCRNSNKSK
Rubusoside conversion products, LC-MS peak area ratio: Reb D [3]: 6.73% | Rubusoside conversion products, LC-MS peak area ratio: Reb E [3]: 52.88% | Rubusoside conversion products, LC-MS peak area ratio: Rub [3]: 3.54% | Rubusoside conversion products, LC-MS peak area ratio: Stev [3]: 2.12% | Stevioside conversion products, LC-MS peak area ratio: Reb D [4]: 1.70% | Stevioside conversion products, LC-MS peak area ratio: Reb E [4]: 42.56% | Stevioside conversion products, LC-MS peak area ratio: Stev [4]: 20.01%

B4: UGT76G1_Sc (protein, UniProt Q6VAB4 1-458, looked up)
UDP-glycosyltransferase 76G1: MENKTETTVRRRRRIILFPVPFQGHINPILQLANVLYSKGFSITIFHTNFNKPKTSNYPHFTFRFILDNDPQDERISNLPTHGPLAGMRIPIINEHGADELRRELELLMLASEEDEEVSCLITDALWYFAQSVADSLNLRRLVLMTSSLFNFHAHVSLPQFDELGYLDPDDKTRLEEQASGFPMLKVKDIKSAYSNWQILKEILGKMIKQTKASSGVIWNSFKELEESELETVIREIPAPSFLIPLPKHLTASSSSLLDHDRTVFQWLDQQPPSSVLYVSFGSTSEVDEKDFLEIARGLVDSKQSFLWVVRPGFVKGSTWVEPLPDGFLGERGRIVKWVPQQEVLAHGAIGAFWTHSGWNSTLESVCEGVPMIFSDFGLDQPLNARYMSDVLKVGVYLENGWERGEIANAIRRVMVDEEGEYIRQNARVLKQKADVSLMKGGSSYESLESLVSYISSL
modifications: expressed in Saccharomyces cerevisiae
Rebaudioside M selectivity (Retention Time ~6.7 min) [5]: 100%
